According to paper doi:10.1101/681668 (bioRxiv, 2019):

Columns and labels:
Assay in all cases: pull-down
MBP-ORC1 R105Q = target: T1, MBP-ORC1 R105Q (human, UniProt Q13415 1-861, R105Q)
T1 sequence: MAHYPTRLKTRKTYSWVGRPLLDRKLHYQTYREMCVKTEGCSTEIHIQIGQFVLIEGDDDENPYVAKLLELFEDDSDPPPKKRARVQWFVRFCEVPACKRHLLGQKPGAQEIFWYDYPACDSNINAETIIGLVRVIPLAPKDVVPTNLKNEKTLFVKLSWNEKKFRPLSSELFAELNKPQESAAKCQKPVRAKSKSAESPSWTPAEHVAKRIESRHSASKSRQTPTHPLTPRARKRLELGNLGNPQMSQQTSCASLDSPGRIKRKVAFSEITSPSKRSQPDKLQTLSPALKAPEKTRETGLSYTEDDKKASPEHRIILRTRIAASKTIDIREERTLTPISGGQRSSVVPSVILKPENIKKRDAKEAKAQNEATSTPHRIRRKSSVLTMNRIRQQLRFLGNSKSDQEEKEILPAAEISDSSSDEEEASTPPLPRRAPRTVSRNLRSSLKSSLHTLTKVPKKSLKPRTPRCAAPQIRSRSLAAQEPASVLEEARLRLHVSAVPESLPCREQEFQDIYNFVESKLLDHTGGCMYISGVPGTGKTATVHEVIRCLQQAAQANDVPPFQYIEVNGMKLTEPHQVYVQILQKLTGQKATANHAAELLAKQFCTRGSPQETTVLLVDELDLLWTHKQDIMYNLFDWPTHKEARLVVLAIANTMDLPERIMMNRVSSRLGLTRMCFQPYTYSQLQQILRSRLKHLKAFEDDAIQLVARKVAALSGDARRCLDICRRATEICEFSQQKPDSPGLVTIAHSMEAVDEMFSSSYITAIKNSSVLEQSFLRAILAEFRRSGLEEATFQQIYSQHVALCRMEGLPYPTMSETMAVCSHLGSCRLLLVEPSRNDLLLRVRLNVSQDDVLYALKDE

MBP-ORC1 CDK3 = target: T2, MBP-ORC1 CDK3 (human, UniProt Q13415 1-861, T375A)
T2 sequence: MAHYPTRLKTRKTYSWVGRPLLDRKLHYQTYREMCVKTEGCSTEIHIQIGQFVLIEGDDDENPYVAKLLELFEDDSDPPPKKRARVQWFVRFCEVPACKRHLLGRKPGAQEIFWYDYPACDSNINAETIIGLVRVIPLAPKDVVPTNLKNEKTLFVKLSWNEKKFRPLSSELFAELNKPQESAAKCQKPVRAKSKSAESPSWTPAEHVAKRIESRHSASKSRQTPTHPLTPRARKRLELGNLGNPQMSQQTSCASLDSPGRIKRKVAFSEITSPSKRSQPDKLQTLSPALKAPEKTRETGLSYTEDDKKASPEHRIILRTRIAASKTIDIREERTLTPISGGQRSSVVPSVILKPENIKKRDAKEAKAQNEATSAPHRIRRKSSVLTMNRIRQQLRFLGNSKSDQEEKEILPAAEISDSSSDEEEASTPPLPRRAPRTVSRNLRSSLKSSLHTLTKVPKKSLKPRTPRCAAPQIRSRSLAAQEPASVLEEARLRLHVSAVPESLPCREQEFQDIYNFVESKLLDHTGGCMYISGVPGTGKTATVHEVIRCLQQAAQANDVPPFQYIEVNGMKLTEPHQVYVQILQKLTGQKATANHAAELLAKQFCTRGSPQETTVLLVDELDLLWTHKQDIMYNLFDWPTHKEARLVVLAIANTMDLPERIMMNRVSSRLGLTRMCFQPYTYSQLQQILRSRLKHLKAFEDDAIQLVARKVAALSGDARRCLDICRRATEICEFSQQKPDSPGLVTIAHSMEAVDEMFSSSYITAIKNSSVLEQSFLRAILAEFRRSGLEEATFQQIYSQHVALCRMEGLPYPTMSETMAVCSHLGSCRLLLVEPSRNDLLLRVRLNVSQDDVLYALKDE

MBP-ORC2 = target: T3, MBP-ORC2 (human, UniProt Q13416 1-577)
T3 sequence: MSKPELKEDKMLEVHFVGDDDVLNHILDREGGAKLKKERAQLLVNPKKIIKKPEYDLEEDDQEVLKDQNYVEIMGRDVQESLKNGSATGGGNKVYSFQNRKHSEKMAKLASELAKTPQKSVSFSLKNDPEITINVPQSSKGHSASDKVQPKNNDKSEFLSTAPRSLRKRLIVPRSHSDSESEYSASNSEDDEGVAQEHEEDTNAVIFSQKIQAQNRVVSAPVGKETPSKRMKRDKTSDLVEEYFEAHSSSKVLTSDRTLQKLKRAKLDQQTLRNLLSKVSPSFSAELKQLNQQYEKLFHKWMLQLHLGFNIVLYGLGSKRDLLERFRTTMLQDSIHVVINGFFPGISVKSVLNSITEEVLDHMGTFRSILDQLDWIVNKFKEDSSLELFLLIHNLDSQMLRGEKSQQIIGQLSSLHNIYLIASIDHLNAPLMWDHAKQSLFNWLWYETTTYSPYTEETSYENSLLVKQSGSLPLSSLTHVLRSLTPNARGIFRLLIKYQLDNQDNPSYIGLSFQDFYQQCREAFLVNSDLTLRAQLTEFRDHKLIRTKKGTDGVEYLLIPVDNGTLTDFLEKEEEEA

binding result (MBP-ORC1 R105Q): binds
binding result (MBP-ORC1 CDK3): binds
binding result (MBP-ORC2): binds
B1: GST-CDC6 (natural protein)
chain: MPQTRSQAQATISFPKRKLSRALNKAKNSSDAKLEPTNVQTVTCSPRVKALPLSPRKRLGDDNLCNTPHLPPCSPPKQGKKENGPPHSHTLKGRRLVFDNQLTIKSPSKRELAKVHQNKILSSVRKSQEITTNSEQRCPLKKESACVRLFKQEGTCYQQAKLVLNTAVPDRLPAREREMDVIRNFLREHICGKKAGSLYLSGAPGTGKTACLSRILQDLKKELKGFKTIMLNCMSLRTAQAVFPAIAQEICQEEVSRPAGKDMMRKLEKHMTAEKGPMIVLVLDEMDQLDSKGQDVLYTLFEWPWLSNSHLVLIGIANTLDLTDRILPRLQAREKCKPQLLNFPPYTRNQIVTILQDRLNQVSRDQVLDNAAVQFCARKVSAVSGDVRKALDVCRRAIEIVESDVKSQTILKPLSECKSPSEPLIPKRVGLIHISQVISEVDGNRMTLSQEGAQDSFPLQQKILVCSLMLLIRQLKIKEVTLGKLYEAYSKVCRKQQVAAVDQSECLSLSGLLEARGILGLKRNKETRLTKVFFKIEEKEIEHALKDKALIGNILATGLP
